Several values for one entry are separate records, joined by “and”; a condition that tells them apart may be missing. Equal entries are not always repeated.
What was measured:
[1] = target: RctB domain IV (RctB^IV, amino acids 532 to 658) (Vibrio cholerae N16961); assay: SEC; analytical SEC, Superdex 200 10/300, 50 mM Hepes, 200 mM NaCl, 2 mM MgCl2, 1 mM TCEP, calibrated with gel filtration standards
[2] = target: RctB, full length (Vibrio cholerae N16961); assay: as above
[3] = target: RctB, full length (Vibrio cholerae N16961); assay: cryo-EM 2D class averages; RctB at 0.25 mg/ml in 50 mM Hepes, 200 mM NaCl, 2 mM MgCl2, 1 mM TCEP; reference-free 2D classification

RctB domain IV (RctB^IV, amino acids 532 to 658) (domain or fragment)
stoichiometry N [1]: 2

RctB, full length (natural protein)
stoichiometry N [2]: 2 and 4 | stoichiometry N [3]: 2 and 4

From publication PMC11711613
